From patent US20220213221 (published 2022)
Read-outs that look alike come from different tables or passages of the source. Values belong to the binder of their own block, whether it stands above or below them.

Legend:
RhoC Q63L = molecular target: T1, RhoC Q63L (human, UniProt P08134)
T1 chain: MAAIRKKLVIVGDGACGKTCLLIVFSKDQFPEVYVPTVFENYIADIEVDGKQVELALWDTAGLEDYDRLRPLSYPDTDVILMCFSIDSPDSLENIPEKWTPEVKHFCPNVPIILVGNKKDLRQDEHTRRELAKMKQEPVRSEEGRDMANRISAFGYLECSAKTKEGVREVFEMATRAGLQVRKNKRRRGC

RhoA Q63L = RhoA Q63L (human, UniProt P61586)
RhoA T19N [1] = molecular target: T2, RhoA T19N (human, UniProt P61586); assay: ELISA
[2] = molecular target: RhoA wild type GDP-loaded (human, UniProt P61586); assay: ELISA
RhoA T19N [3] = molecular target: T2, RhoA T19N
RhoB Q63L = molecular target: T3, RhoB Q63L (human, UniProt P62745)
T3 chain: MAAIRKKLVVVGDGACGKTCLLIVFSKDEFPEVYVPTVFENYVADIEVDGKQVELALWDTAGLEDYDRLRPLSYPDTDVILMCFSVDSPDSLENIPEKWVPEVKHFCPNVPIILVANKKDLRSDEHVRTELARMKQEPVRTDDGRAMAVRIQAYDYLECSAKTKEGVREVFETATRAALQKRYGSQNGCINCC

T2 sequence (P61586 1-190 T19N): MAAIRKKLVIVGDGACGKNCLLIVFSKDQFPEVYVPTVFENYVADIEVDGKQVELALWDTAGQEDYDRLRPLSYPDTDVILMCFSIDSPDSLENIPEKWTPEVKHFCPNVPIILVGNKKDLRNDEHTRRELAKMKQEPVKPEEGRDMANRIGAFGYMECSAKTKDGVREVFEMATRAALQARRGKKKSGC

B1: H12 (antibody, V domains shown)
VH: VQLQASGGGFVQPGGSLRLSCAASGDGSRIYAMGWFRQAPGKEREFVSAISWEQDWEHYYADSVKGRFTISRDNSKNTVYLQMNSLRAEDTATYYCAAFMTPHRNLTSMYWGQGTQVTVSS
Kd (RhoC Q63L): 0.0479 nM | Kd (RhoA Q63L): 0.265 nM | binding result (RhoA T19N [1]): no binding | binding result [2]: no binding

B3: 5SNP65 (antibody, V domains shown)
VH: VQLQASGGGFVQPGGSLRLSCAASGATYEGEAMGWFRQAPGKEREFVSAISSYPSVISYYADSVKGRFTISRDNSKNTVYLQMNSLRAEDTATYYCAYWVNHEGTIREIYWGQGTQVTVSS
binding result (RhoA T19N [3]): no binding

B4: B6 (antibody, V domains shown)
VH: VQLQASGGGFVQPGGSLRLSCAASGYGSTIETMGWFRQAPGKEREFVSAISRAPGPSQYYADSVKGRFTISRDNSKNTVYLQMNSLRAEDTATYYCAPINNRTMQDSMFLWNYWGQGTQVTVSS
Kd (RhoB Q63L): 0.71 nM

The remaining lines, values ahead:

binding result (RhoA T19N [3]): no binding
B2: 5SNP48 (antibody, V domains shown)
VH: VQLQASGGGFVQPGGSLRLSCAASGTSWFTEVMGWFRQAPGKEREFVSAISGLHDVGTYYADSVKGRFTISRDNSKNTVYLQMNSLRAEDTATYYCAALDKWYTKAMDARKDYWGQGTQVTVSS

Kd (RhoC Q63L): 0.0831 nM | Kd (RhoA Q63L): 0.296 nM | Kd (RhoB Q63L): 0.278 nM
B5: 4SNP36 (antibody, V domains shown)
VH: VQLQASGGGFVQPGGSLRLSCAASGTSWKDYTMGWFRQAPGKEREFVSAISEGPGAQYYYADSVKGRFTISRDNSKNVYLQMNSLRAEDTATYYCAYSSWQPYVSYWGQGTQVTVSS
